{"source": "patent US20110230650A1", "about": "(NORTHWESTERN UNIVERSITY, published 2011)", "proteins": {"B1": {"name": "histidine-tagged LP4 (designed binder)", "chain": "FQKKWQEEMELYRQKVEPLRAELQEGARQKLHELQEKLSPLGEEMRDRARAHVDAFQKKWQEEMELYRQKVEPLRAELQEGARQKLHELQEKLSPLGEEMRDRARAHVDAFQKKWQEEMELYRQKVEPLRAELQEGARQKLHELQEKLSPLGEEMRDRARAHVDAFQKKWQEEMELYRQKVEPLRAELQEGARQKLHELQEKLSPLGEEMRDRARAHVDA", "notes": "Histidine-tagged LP4 purified without detergent as an empty, lipid-filled nanodisc; not shown: histidine tag"}}, "target": "the molecule itself", "assay": "gel filtration (Superdex 200) of His-tagged LP4 purified without detergent; lipid nanodisc", "source_text": "In some embodiments, the presently disclosed compositions comprise a distinct form of polypeptides that are specifically engineered to spontaneously solubilize membrane proteins without a detergent intermediary (i.e., “LP” molecules). […] For example, in some embodiments the polypeptides comprise multiple repeats of an amphipathic helical fragment of ApoA1. […] The eluted protein was run on a gel filtration column (Superdex 200, FIG. 3, middle panel). […] The protein behaved as expected: it self-assembled as a dimer of appropriate size (as in FIG. 2) and solubilized a membrane fragment."}
{"protein": "B1", "values": [{"measurement": "binding result", "value": "binds"}]}
